15 molecules from patent US20110229406A1 (U3 PHARMA, published 2011) can be followed below.

One assay deals with T1, HER-3 (human, on cells) (human, UniProt P21860 20-1342).
T1 construct: whole, on cells; also called ErbB3; HER-3+ cell lines
The assay can be described thus: indirect FACS Scatchard analysis on cells.

Assay [1] concerns the target T2, rat HER-3 ECD (V5-His fusion protein) (rat, UniProt Q62799 20-643).
T2 construct: extracellular domain; not shown: V5-His tag
Description: ELISA, column Rat XR (XR = cross-reactive). A general note: In an ELISA, binding on a coated surface is turned into a signal by an enzyme label.

Assay [2] deals with T3, reduced, denatured HER-3-His tagged purified ECD protein (human, UniProt P21860 20-643).
T3 construct: extracellular domain; Same protein as m2, but reduced and denatured (disulfide bonds broken); not shown: His tag
Description: dot blot of reduced, denatured HER-3-His ECD.

Usually Kd stands for the concentration at which binding is half-saturated. A high value points to weaker binding.

T2 sequence (Q62799 20-643): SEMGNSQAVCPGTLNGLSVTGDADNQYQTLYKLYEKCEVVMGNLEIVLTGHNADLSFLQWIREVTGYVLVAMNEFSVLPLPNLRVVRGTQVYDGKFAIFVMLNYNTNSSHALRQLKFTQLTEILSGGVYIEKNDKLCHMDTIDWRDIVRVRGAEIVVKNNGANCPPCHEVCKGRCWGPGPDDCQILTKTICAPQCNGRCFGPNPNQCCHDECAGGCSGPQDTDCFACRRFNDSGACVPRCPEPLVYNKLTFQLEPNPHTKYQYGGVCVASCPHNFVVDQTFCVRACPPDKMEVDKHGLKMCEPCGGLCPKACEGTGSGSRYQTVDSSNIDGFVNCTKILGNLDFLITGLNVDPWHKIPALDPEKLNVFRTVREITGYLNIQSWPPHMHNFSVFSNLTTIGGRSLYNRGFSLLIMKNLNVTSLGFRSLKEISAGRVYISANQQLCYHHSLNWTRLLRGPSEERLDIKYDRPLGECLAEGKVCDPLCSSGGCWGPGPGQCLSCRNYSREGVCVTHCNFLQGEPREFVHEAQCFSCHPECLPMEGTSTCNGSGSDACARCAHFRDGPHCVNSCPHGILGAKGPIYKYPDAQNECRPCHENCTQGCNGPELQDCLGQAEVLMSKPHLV
Description for HER-3 (human, on cells): Therefore, 10⁵ cells of interest or SK-Br 3 cells were harvested with 10 mM EDTA in PBS, washed once with FACS buffer (PBS, 3% FCS, 0.4% azide) and seeded on a 96-well round bottom plate. The cells were spun for 3 min at 1000 rpm to remove supernatant and then resuspended with α-HER-3 antibody (3 μg/ml) or with antibody dilutions (100 μl/well) starting with 20 μg/ml human monoclonal antibody in FACS buffer, diluted in 1:2 dilution steps. Cell suspensions were incubated on ice for 1 hr, washed twice with FACS buffer and resuspended with secondary antibody (100 μl/well) donkey-anti-human-PE (Jackson) diluted 1:50 in FACS buffer. The cell suspensions were incubated on ice and in the dark for 30 min, washed twice with FACS buffer and analyzed (FACS, Beckman Coulter). According to the FACS Scatchard analysis, the fluorescence mean was calculated for each measurement. Background staining (=without 1st antibody) was subtracted from each fluorescence mean. Scatchard plot with x-value=fluorescence mean and y-value=fluorescence mean/concentration of mAb (nM) was generated.

B1: U1-53 (antibody, V domains shown)
VH: EVQLVESGGGLVQPGGSLRLSCAASGFTFSIYSMNWVRQAPGKGLEWVSYISSSSSTIYYADSVKGRFTISRDNAKNSLYLQMNSLRDEDTAVYYCARDRGDFDAFDIWGQGTMVTVSS
VL: DIQMTQSPSSLSASVGDRVTITCQASQDITNYLNWYQQKPGKAPKLLIYDASNLETGVPSRFSGSGSGTDFTFTISSLQPEDIATYNCQQCENFPITFGQGTRLEIK
notes: also called mAb U1-53
Regarding B1, binding with HER-3 (human, on cells) was characterised by a dissociation constant (Kd) of 0.082 nM. Also, the binding result in assay [1] and in assay [2] was “no binding” in each case.

B2: U1-58 (antibody, V domains shown)
VH: QVQLVESGGGVVQPGRSLRLSCAASGFTFSSYGMHWVRQAPGKGLEWVAVIWYDGSNKYYADSVKGRFTISRDNSKNTLYLQMNSLRAEDTAVYYCARAARLDYYYGMDVWGQGTTVTVSS
VL: DIQMTQSPSSLSASVGDRVSITCRASQSINSYLNWFQQKPGKAPQLLIFGASGLQSGVPSRFSGSGSGTDFTLTINSLQPEDFATYYCQQSYSSPLTFGQGTRLEIK
In the assay with HER-3 (human, on cells), B2 displayed a Kd of 6.4 nM.

B3: U1-55.1 (antibody, V domains shown)
VH: QVQLQESGPGLVKPSETLSLTCTVSGGSVSSGGYYWNWIRQPPGKGLEWIGYINYSGSTNYNPSLKSRVTISVDTSKNQFSLKLSSVTAADTAVYYCARDRELELYYYYYGMDVWGQGTTVTVS
VL: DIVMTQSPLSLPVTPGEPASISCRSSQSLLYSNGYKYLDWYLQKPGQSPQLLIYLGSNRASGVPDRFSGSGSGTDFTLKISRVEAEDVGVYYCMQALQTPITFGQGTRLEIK
With B3, the affinity with HER-3 (human, on cells), expressed as Kd, was 3.7 nM.

B4: U1-47 (antibody, V domains shown)
VH: QVQLQQSGPGLVKPSQTLSLTCAISGDSVSSNSAAWNWIRQSPSRGLEWLGRTYYRSKWYNDYAVSVKSRITINPDTSKNQFSLQLNSVTPEDTAVYYCARDYYGSGSFYYYYGMDVWGQGTTVTVS
VL: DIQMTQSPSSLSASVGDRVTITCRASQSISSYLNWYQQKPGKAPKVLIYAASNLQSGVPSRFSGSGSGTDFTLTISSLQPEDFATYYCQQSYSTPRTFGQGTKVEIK
Regarding B4, the affinity in the assay with HER-3 (human, on cells), expressed as Kd, was 9.38 nM.

B5: U1-39 (antibody, V domains shown)
VH: EVQLVESGGGLIQPGGSLRLSCAASGFTVSSNYMSWVRQAPGKGLDWVSVIYSGGSTYYADSVKGRFTISRDNSKNTLYLQMNSLRAEDTAVYYCARGQWLDVWGQGTTVTVSS
VL: DIVMTQSPLSLPVTPGEPASISCRSSQSLLHSNGYNYLDWYLQRPGQSPQLLFYLGFHRASGVPDRFSGSGSGTDFTLKISRVEAEDVGVYYCRQALQTPLTFGGGTKVEIK
Molecule B5 returned a Kd in the assay with HER-3 (human, on cells) of 102 nM.

B6: U1-59 (antibody, human IgG1, V domains shown)
VH: QVQLQQWGAGLLKPSETLSLTCAVYGGSFSGYYWSWIRQPPGKGLEWIGEINHSGSTNYNPSLKSRVTISVETSKNQFSLKLSSVTAADTAVYYCARDKWTWYFDLWGRGTLVTVSS
VL: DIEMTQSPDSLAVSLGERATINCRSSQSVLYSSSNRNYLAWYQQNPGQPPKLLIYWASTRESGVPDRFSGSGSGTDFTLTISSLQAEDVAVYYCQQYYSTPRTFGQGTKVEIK
notes: human IgG1 (gamma 1 constant) with human kappa constant region; also called mAb U1-59; IgG1 mAb consisting of the VH4-34 and the B3 kappa chain
As for B6, in the assay with HER-3 (human, on cells), binding was put at a Kd of 3.69 nM. For the same molecule, the binding result in assay [1] was “binds”.

B7: U1-62 (antibody)
chain 1: EVQLVQSGAEVKKPGESLKISCKGSGYSFTSYWIGWVRQMPGKGLEWMGIIYPGDSDTRYSPSFQGQVTMSADKSISTAYLQLSSHEGLGHRHVLLCETDGWKLRTSRVIETSWGQGTTVTVS
chain 2: not shown
Turning to B7, the Kd in the assay with HER-3 (human, on cells) worked out at 20.4 nM.

B8: U1-43 (antibody, V domains shown)
VH: QVQLQESGPGLVKPSQTLSLTCTVSGGSISSGGYYWSWIRQHPGKGLEWIGYIYYSGSTYYNPSLRSRVTISVDTSKNQFSLKLSSVTAADTAVYYCARDREREWDDYGDPQGMDVWGQGTTVTVS
VL: DIQMTQSPSSLSASVGDRVTITCRASQSISSYLHWYQQKPGKAPKLLIHAASSLQSGVPSRFSGSGSGTDFTLTISSLQPEDFATYYCQQSYSNPLTFGGGTKVEIQ
In the assay with HER-3 (human, on cells), B8 returned a Kd of 0.57 nM.

B9: U1-61 (antibody, V domains shown)
VH: QVQLQESGPGLVKPSQTLSLTCTVSGVSISSGGYYWSWIRQHPGMGLEWIGYIYYSGSTYYNPSLKSRVTISEDTSKNQFSLKLSSVTAADTAVYYCARDSESEYSSSSNYGMDVWGQGTTVTVS
VL: DIQMTQSPSSLSASVGDRITITCRASQTISSYLNWYQQKPGKAPKLLIYAASSLQGGVPSRFSGSVSGTDFTLTVSSLQPEDFATYYCQQSYSNPLTFGGGTKVEIK
In turn, B9 registered a Kd with HER-3 (human, on cells) of 0.13 nM.

B10: U1-44 (antibody, V domains shown)
VH: EVQLVQSGAEVKKPGESLKISCKGSGYSFTSYWIGWVRQMPGKGLEWMGIIWPGDSDTIYSPSFQGQVTISADKSISTAYLQWSSLKASDTAMYYCARHENYGDYNYWGQGTLVTVSS
VL: DIQMTQSPSSLSASVGDRVTITCRASQSIRSYLNWYQQKPGNAPKLLIYAASSLQSGVPSRFSGSGSGTDFTLTISSLQPEDFALYYCQQSISSPLTFGGGTKVEIK
As to B10, the affinity with HER-3 (human, on cells), expressed as Kd, was 4 nM.

B11: U1-24 (antibody, V domains shown)
VH: QVQLQESGPGLVKPSQTLSLTCTVSGGSISSGDYYWSWIRQHPGKGLEWIGYIYYSGSTYYNPSLKSRVTISVDTSKNQFSLKLSSVTAADTAVYYCARADYDFWNGYFDYWGQGTLVTVSS
VL: DIQMTQSPSSLSASVGDRVTITCRASQGIRNDLGWYQQKPGKAPKRLIYAASSLQSGVPSRFSGSGSGTEFTLTISSLQPEDFATYYCLQHNNYPWTFGQGTKVEIK
In turn, B11 displayed a Kd in the assay with HER-3 (human, on cells) of 0.06 nM.

B12: U1-7 (antibody, V domains shown)
VH: QVQLQESGPGLVKPSQTLSLTCTVSGGSISSGDYYWSWIRQHPGKGLEWIGYIYYSGSTYYNPSLKSRVTISVDTSKNQFSLKLSSVTAADTAVYYCARADYDFWSGYFDYWGQGTLVTVSS
VL: DFQMTQSPSSLSASVGDRVTITCRASQDIRNDLGWYRQKPGKAPKRLIYAASSLQSGVPSRFSGSGSGTEFTLTISSLQPEDFATYYCLQHNSYPWTFGQGTKVEIK
For B12, binding with HER-3 (human, on cells) was put at a Kd of 0.02 nM.

B13: U1-49 (antibody, human IgG1, V domains shown)
VH: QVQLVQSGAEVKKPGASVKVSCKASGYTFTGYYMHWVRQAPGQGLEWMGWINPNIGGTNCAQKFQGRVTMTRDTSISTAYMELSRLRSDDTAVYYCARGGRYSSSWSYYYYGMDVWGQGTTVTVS
VL: DILMTQTPLSLSVTPGQPASISCKSSQSLLLSDGGTYLYWYLQKPGQPPQLLIYEVSNRFSGVPDRFSGSGSGTDFTLKISRVEAEDVGVYYCMQSMQLPITFGQGTRLEIK
notes: also called human IgG1 HER-3 mAb, U1-49
Regarding B13, the Kd with HER-3 (human, on cells) amounted to 1 nM. The binding result in assay [1] and in assay [2] was “no binding” throughout.

B14: U1-51 (antibody, V domains shown)
VH: QVQLQESGPGLVKPSETLSLTCTVSGGSISSYYWSWIRQPPGKGLEWIGYIYYSGSTNYNPSLKSRVTISVDTSKHQFSLKLSSVTAADTAVYYCARDSSYYDSSGYYLYYYAMDVWGQGTTVTVS
VL: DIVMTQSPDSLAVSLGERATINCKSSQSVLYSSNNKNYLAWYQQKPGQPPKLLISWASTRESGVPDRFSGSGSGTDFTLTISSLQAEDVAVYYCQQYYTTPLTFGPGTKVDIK
In the assay with HER-3 (human, on cells), B14 showed a Kd of 132 nM.

B15: U1-41 (antibody, V domains shown)
VH: QVQLQESGPGLVKPSQTLSLTCTVSGGSISSGGYYWSWIRQHPGKGLEWIGYIYYSGSTYYNPSLKSRVTISVDTSKNQFSLKLSSVTAADTAVYFCARDRELEGYSNYYGVDVWGQGTTVTVS
VL: DIQMTQSPSSLSASVGDRVTITCRASQAISNYLNWYQQKPGKAPKLLIYAASSLQSGVPSRFSGSGSGTDFTLTISSLQPEDFATYYCQQNNSLPITFGQGTRLEIK
B15 yielded a Kd with HER-3 (human, on cells) of 0.18 nM.
